From article PMC6238601, “Specificity for deubiquitination of monoubiquitinated FANCD2 is driven by the N-terminus of USP1” (Life Science Alliance, 2018)

Target: T1, UAF1 with an N-terminal Strep tag (human, UniProt Q8TAF3 1-677)
T1 construct: UAF1 (USP1-associated factor 1), human; Strep11 tag and linker GGSGGS were added N-terminal of the His-3C tag; as the Strep tag is used for capture, the His-3C stretch was probably kept too (surmise); also called Strep-tagged UAF1; N-terminal Strep-tagged UAF1; source: Sf21 (baculovirus), purified; not shown: Strep11, N-terminal, kept
T1 sequence (Q8TAF3 whole entry): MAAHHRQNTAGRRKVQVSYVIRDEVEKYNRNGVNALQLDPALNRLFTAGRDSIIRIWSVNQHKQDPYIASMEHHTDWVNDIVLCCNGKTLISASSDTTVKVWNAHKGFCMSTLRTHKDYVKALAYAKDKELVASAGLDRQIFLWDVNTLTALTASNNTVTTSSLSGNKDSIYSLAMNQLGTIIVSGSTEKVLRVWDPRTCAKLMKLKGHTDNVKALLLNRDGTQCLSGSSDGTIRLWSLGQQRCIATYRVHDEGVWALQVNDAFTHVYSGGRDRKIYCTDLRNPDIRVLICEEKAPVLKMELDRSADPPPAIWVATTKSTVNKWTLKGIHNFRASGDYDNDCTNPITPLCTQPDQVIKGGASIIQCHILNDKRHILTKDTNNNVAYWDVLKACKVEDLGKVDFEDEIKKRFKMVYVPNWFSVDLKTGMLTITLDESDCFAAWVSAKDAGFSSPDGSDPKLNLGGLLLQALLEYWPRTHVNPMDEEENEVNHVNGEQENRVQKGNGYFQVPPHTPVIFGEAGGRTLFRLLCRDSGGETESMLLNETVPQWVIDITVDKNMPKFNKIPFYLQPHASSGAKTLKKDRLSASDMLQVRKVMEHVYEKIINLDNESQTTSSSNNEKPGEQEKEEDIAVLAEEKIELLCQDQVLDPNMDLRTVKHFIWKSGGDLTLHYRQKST
Experiment: pull-down; N-terminal Strep-tagged UAF1 complexed with E. coli USP1, 10 μg bound to MagStrep beads and washed; 10 μg recombinant substrate, 1 h on ice; 50 mM Tris pH 7.5, 120 mM NaCl, 5% glycerol, 1 mM DTT, 0.01% Triton X-100, 0.01% ovalbumin; SDS-PAGE; beads without USP1–UAF1 as control
Conditions: both partners purified

Row | Binder | binding result
1 | USP1^Δ1Δ2 (Δ229–408, Δ608–737), E. coli-expressed (enzyme, human, UniProt O94782 1-785, looked up, USP1, human; Insertion 1 (Δ229–408) and Insertion 2 (Δ608–737) deleted; gene synthesised and optimised for E. coli; GST-3C tag from pGEX6P; a few residues of the 3C site may be left after cleavage (surmise); also called E. coli–expressed USP1^Δ1Δ2; source: E. coli BL21, purified (GSH resin, SEC)) MPGVIPSESNGLSRGSPSKKNRLSLKFFQKKETKRALDFTDSQENEEKASEYRASEIDQVVPAAQSSPINCEKRENLLPFVGLNNLGNTCYLNSILQVLYFCPGFKSGVKHLFNIISRKKEALKDEANQKDKGNCKEDSLASYELICSLQSLIISVEQLQASFLLNPEKYTDELATQPRRLLNTLRELNPMYEGYLQHDAQEVLQCILGNIQETCQLLKKEEVKNVAENEVKPINKGEEQIGFELVEKLFQGQLVLRTRCLECESLTERREDFQDISVPVQEDELSKVEESSEISPEPKTEMKTLRWAISQFASVERIVGEDKYFCENCHHYTEAERSLLFDKMPEVITIHLKCFAASGLEFDCYGGGLSKINTPLLTPLKLSLEEWSTKPTNDSYGLFAVVMHSGITISSGHYTASVKVTDLNSLEQSLKEYEGKWLLFDDSEVKVTEEKDFLNSLSPSTSPTSTPYLLFYKKL | binds
2 | USP1^Δ1Δ2-L25A, E. coli-expressed (enzyme, human, UniProt O94782 1-785, looked up, USP1, human; Δ229–408, Δ608–737, L25A (one of the alanine point mutants of the N-terminus); source: E. coli BL21, purified (GSH resin, SEC)) MPGVIPSESNGLSRGSPSKKNRLSAKFFQKKETKRALDFTDSQENEEKASEYRASEIDQVVPAAQSSPINCEKRENLLPFVGLNNLGNTCYLNSILQVLYFCPGFKSGVKHLFNIISRKKEALKDEANQKDKGNCKEDSLASYELICSLQSLIISVEQLQASFLLNPEKYTDELATQPRRLLNTLRELNPMYEGYLQHDAQEVLQCILGNIQETCQLLKKEEVKNVAENEVKPINKGEEQIGFELVEKLFQGQLVLRTRCLECESLTERREDFQDISVPVQEDELSKVEESSEISPEPKTEMKTLRWAISQFASVERIVGEDKYFCENCHHYTEAERSLLFDKMPEVITIHLKCFAASGLEFDCYGGGLSKINTPLLTPLKLSLEEWSTKPTNDSYGLFAVVMHSGITISSGHYTASVKVTDLNSLEQSLKEYEGKWLLFDDSEVKVTEEKDFLNSLSPSTSPTSTPYLLFYKKL | binds
3 | USP1^Δ1Δ2-R22A, E. coli-expressed (enzyme, human, UniProt O94782 1-785, looked up, USP1, human; Δ229–408, Δ608–737, R22A; source: E. coli BL21, purified (GSH resin, SEC)) MPGVIPSESNGLSRGSPSKKNALSLKFFQKKETKRALDFTDSQENEEKASEYRASEIDQVVPAAQSSPINCEKRENLLPFVGLNNLGNTCYLNSILQVLYFCPGFKSGVKHLFNIISRKKEALKDEANQKDKGNCKEDSLASYELICSLQSLIISVEQLQASFLLNPEKYTDELATQPRRLLNTLRELNPMYEGYLQHDAQEVLQCILGNIQETCQLLKKEEVKNVAENEVKPINKGEEQIGFELVEKLFQGQLVLRTRCLECESLTERREDFQDISVPVQEDELSKVEESSEISPEPKTEMKTLRWAISQFASVERIVGEDKYFCENCHHYTEAERSLLFDKMPEVITIHLKCFAASGLEFDCYGGGLSKINTPLLTPLKLSLEEWSTKPTNDSYGLFAVVMHSGITISSGHYTASVKVTDLNSLEQSLKEYEGKWLLFDDSEVKVTEEKDFLNSLSPSTSPTSTPYLLFYKKL | binds
4 | USP1^Δ1Δ2-R22K, E. coli-expressed (enzyme, human, UniProt O94782 1-785, looked up, USP1, human; Δ229–408, Δ608–737, R22K; source: E. coli BL21, purified (GSH resin, SEC)) MPGVIPSESNGLSRGSPSKKNKLSLKFFQKKETKRALDFTDSQENEEKASEYRASEIDQVVPAAQSSPINCEKRENLLPFVGLNNLGNTCYLNSILQVLYFCPGFKSGVKHLFNIISRKKEALKDEANQKDKGNCKEDSLASYELICSLQSLIISVEQLQASFLLNPEKYTDELATQPRRLLNTLRELNPMYEGYLQHDAQEVLQCILGNIQETCQLLKKEEVKNVAENEVKPINKGEEQIGFELVEKLFQGQLVLRTRCLECESLTERREDFQDISVPVQEDELSKVEESSEISPEPKTEMKTLRWAISQFASVERIVGEDKYFCENCHHYTEAERSLLFDKMPEVITIHLKCFAASGLEFDCYGGGLSKINTPLLTPLKLSLEEWSTKPTNDSYGLFAVVMHSGITISSGHYTASVKVTDLNSLEQSLKEYEGKWLLFDDSEVKVTEEKDFLNSLSPSTSPTSTPYLLFYKKL | binds
5 | USP1^ΔNΔ1Δ2 (Δ1–54, Δ229–408, Δ608–737), E. coli-expressed (domain or fragment, human, UniProt O94782 55-785, looked up, USP1, human; Δ1–54, Δ229–408, Δ608–737; also called E. coli–expressed USP1^ΔNΔ1Δ2; source: E. coli BL21, purified (GSH resin, SEC)) SEIDQVVPAAQSSPINCEKRENLLPFVGLNNLGNTCYLNSILQVLYFCPGFKSGVKHLFNIISRKKEALKDEANQKDKGNCKEDSLASYELICSLQSLIISVEQLQASFLLNPEKYTDELATQPRRLLNTLRELNPMYEGYLQHDAQEVLQCILGNIQETCQLLKKEEVKNVAENEVKPINKGEEQIGFELVEKLFQGQLVLRTRCLECESLTERREDFQDISVPVQEDELSKVEESSEISPEPKTEMKTLRWAISQFASVERIVGEDKYFCENCHHYTEAERSLLFDKMPEVITIHLKCFAASGLEFDCYGGGLSKINTPLLTPLKLSLEEWSTKPTNDSYGLFAVVMHSGITISSGHYTASVKVTDLNSLEQSLKEYEGKWLLFDDSEVKVTEEKDFLNSLSPSTSPTSTPYLLFYKKL | binds
